Usually stoichiometry N stands for the number of molecules, sites or subunits per partner or assembly.

Two molecules from paper PMC6213154, “Mapping the Contact Sites of the Escherichia coli Division-Initiating Proteins FtsZ and ZapA by BAMG Cross-Linking and Site-Directed Mutagenesis” (International Journal of Molecular Sciences, 2018) can be followed below.

B1: FtsZ (Filamenting temperature sensitive Z), Escherichia coli (natural protein, E. coli, UniProt P0A9A6 1-383, looked up)
chain: MFEPMELTNDAVIKVIGVGGGGGNAVEHMVRERIEGVEFFAVNTDAQALRKTAVGQTIQIGSGITKGLGAGANPEVGRNAADEDRDALRAALEGADMVFIAAGMGGGTGTGAAPVVAEVAKDLGILTVAVVTKPFNFEGKKRMAFAEQGITELSKHVDSLITIPNDKLLKVLGRGISLLDAFGAANDVLKGAVQGIAELITRPGLMNVDFADVRTVMSEMGYAMMGSGVASGEDRAEEAAEMAISSPLLEDIDLSGARGVLVNITAGFDLRLDEFETVGNTIRAFASDNATVVIGTSLDPDMNDELRVTVVATGIGMDKRPEITLVTNKQVQQPVMDRYQQHGMAPLTQEQKPVAKVVNDNAPQTAKEPDYLDIPAFLRKQAD
notes: FtsZ, Escherichia coli; tryptic peptides up to the C-terminal KQAD (residues 380-383) were identified; In the cross-linking experiments a 1:1 mixture of 14N- and 15N-labelled FtsZ was used (about 95% 15N); Polymerised with GTP into protofilaments; also called ^14N-FtsZ; ^15N-FtsZ; source: E. coli BL21(DE3) pRRE6, isolated as described [52]

Data set [1] concerns the molecule itself. The experiment in a line: cross-linking; BAMG, LC-MS/MS; bundling conditions: FtsZ (14N:15N 1:1) without ZapA, 10 mM CaCl2, 30 uM GTP, polymerization buffer pH 7.5, 30 °C.
For data set [2], the target named is B1. As to the kind of experiment: cross-linking; BAMG (100-150 uM) added 30-60 s after GTP, 30 min at 30 °C; trypsin digest, enrichment on ARCO resin, SCX, LC-MS/MS; 3.4 uM FtsZ (14N:15N 1:1), 6.8 uM ZapA, 50 mM HEPES pH 7.5, 50 mM KCl, 5 mM MgCl2, 60 uM GTP; no Ca2+. Conditions: both partners purified.
Data set [3] concerns the molecule itself. The data set is described as above.

For B1, the binding result in data set [1] is recorded as “binds”.

B2: ZapA (Z associated protein A), Escherichia coli (natural protein, E. coli)
chain: MSAQPVDIQIFGRSLRVNCPPDQRDALNQAADDLNQRLQDLKERTRVTNTEQLVFIAALNISYELAQEKAKTRDYAASMEQRIRMLQQTIEQALLEQGRITEKTNQNFE
notes: ZapA, Escherichia coli; source: isolated using a His-tagged version, His-tag removed by proteolysis, as described [8]
Regarding B2, the binding result in data set [2] is listed as “binds”. In data set [3], the “stoichiometry N” value came to 4.
